Tests used:
Assay in all cases: FACS on transfected Expi293 cells, antibody 1 µg/ml, labelled anti-human Fc
[1] = molecular target: T1, human beta klotho expressed on cells (human, UniProt Q86Z14 1-1044)
T1 construct: also called HuKLB overexpressing cells; Human KLB
T1 sequence: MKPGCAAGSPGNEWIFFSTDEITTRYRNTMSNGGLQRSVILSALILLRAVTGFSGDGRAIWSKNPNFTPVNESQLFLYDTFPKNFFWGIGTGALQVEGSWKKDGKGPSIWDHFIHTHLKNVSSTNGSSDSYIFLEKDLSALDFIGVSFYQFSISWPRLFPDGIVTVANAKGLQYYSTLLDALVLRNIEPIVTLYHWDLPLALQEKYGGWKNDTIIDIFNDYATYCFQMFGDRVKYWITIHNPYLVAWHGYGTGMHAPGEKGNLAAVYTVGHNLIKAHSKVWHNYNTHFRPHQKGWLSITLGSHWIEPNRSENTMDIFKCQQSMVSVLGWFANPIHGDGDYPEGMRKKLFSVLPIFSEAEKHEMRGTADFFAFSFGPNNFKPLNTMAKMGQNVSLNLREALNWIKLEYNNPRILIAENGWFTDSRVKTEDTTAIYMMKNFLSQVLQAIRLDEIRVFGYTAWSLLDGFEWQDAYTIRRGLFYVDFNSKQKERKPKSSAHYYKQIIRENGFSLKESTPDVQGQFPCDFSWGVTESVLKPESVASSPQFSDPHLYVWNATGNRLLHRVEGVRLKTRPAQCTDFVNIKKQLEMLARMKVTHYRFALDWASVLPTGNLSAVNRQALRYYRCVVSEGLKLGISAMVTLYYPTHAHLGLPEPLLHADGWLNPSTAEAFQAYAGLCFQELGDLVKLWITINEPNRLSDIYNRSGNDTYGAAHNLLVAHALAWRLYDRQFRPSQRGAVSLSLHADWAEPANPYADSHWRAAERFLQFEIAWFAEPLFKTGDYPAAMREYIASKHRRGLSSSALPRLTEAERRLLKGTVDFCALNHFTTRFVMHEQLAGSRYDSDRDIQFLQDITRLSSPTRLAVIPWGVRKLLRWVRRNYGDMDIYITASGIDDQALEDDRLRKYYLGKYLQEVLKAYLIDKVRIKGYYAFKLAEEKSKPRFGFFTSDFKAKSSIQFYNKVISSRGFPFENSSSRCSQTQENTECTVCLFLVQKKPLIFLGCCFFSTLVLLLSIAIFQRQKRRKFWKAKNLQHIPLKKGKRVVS
Description: (§1) Studies were performed in order to localize the binding site on human KLB of anti-beta klotho antibodies in the 5H23 epitope bin, including 5H23 as described in Example 3, with sequences shown in Tables 1-10 and FIGS. 1-3, and human anti-beta klotho antibodies in the 5H23 epitope bin, such as humanized 5H23 antibodies (e.g., VH SEQ ID NO: 271 and VL SEQ ID NO: 276). For example, FACS-based binding assays for domain mapping were performed on Expi293 cells (Life Technologies, A14635) that were transiently transfected with plasmids encoding variants of KLB: human, mouse, cynomolgus, a chimeric version in which the KL1 domain sequence of mouse KLB (M1-F506) replaces the KL1 domain of human KLB (M1-F508) to create mouse-human KLB (SEQ ID NO: 376), and a second chimera in which the human KL1 sequence (M1-F508) replaces the KL1 domain of mouse KLB (M1-F506) to create human-mouse KLB (SEQ ID NO: 374). Additionally, the expression vector pYD7 harboring no KLB sequence was transfected as a negative control.
(§2) In some studies, binding of a purified sample of a humanized 5H23 antibody (e.g., VH SEQ ID NO: 271 and VL SEQ ID NO: 276) to KLB variants was determined by FACS analysis. […] After washing with PBS/1% BSA/0.1% azide, transfected cells were then co-incubated with labeled anti-human Fc (Jackson lmmunoresearch) for 30 minutes at 4° C. After washing with PBS/1% BSA/0.1% azide, cells were acquired on flow cytometer (FACS Calibur) and analyzed by cytometric software (FlowJo). To display the resulting data, graphs plotting the number of cells as a function of fluorescence intensity were generated, and the median fluorescence intensity (MFI) was determined for each sample as shown in Table 30.

[2] = molecular target: T2, cynomolgus beta klotho expressed on cells (cynomolgus monkey (Macaca fascicularis), UniProt Q86Z14 1-1044 (human entry))
T2 construct: also called Cynomolgus KLB
T2 chain: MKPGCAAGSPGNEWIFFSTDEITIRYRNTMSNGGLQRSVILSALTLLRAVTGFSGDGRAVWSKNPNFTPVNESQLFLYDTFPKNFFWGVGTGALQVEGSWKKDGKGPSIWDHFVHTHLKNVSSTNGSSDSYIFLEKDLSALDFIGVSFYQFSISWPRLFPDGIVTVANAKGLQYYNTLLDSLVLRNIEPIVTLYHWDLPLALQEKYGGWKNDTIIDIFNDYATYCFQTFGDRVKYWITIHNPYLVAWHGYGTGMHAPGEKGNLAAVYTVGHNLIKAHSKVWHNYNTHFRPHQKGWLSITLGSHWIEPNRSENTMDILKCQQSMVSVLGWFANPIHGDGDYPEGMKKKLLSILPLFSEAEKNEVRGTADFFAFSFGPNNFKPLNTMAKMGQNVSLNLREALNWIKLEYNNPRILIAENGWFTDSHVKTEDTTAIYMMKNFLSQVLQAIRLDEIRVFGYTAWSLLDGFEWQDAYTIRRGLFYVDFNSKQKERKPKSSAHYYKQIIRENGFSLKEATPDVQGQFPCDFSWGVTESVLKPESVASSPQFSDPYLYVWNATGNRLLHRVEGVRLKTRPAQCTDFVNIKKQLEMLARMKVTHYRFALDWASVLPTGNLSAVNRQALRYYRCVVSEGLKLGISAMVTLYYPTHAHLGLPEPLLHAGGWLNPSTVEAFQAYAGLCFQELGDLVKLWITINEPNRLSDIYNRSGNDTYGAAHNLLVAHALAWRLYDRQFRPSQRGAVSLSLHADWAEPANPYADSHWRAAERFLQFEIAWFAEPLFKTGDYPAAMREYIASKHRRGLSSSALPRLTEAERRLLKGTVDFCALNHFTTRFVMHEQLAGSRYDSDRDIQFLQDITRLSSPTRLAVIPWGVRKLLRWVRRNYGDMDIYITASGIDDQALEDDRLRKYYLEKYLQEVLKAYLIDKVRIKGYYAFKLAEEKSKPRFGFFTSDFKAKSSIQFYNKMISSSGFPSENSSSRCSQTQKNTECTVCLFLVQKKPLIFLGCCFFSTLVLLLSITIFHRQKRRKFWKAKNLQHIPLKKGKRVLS
Description: as §1, §2

[3] = molecular target: T3, human-mouse KLB chimeric protein (human KLB (M1-F508)-mouse KLB (P507-S1043)) on cells (human/mouse chimera, UniProt Q99N32 1-1043 (mouse entry))
T3 construct: also called Human-Mouse chimeric KLB; chHuMo
Description: as §1, §2

B1: humanized 5H23 antibody (VH SEQ ID NO: 271 and VL SEQ ID NO: 276) (antibody, V domains shown)
VH: QVQLQQSGAEVKKPGASVKVSCKASGYTFTSYDINWVRQAPGQGLEWIGWIYPGDGSTKYNEKFKGKATITRDTSASTAYMELSSLRSEDTAVYFCARSDYYGSRSFAYWGQGTLVTVSS
VL: DIVMTQSPDSLAVSLGERATINCRASKSVSTSGYVYMHWYQQKPGQPPKLLIYLASYLESGVPDRFSGSGSGTDFTLTISSVQAEDVAVYYCQHSRDLTFPFGGGTKLEIK
notes: also called h5H23; h5H23 (Prep 1)
Mean Fluorescence intensity [1]: 865 MFI
Mean Fluorescence intensity [2]: 1910 MFI
Mean Fluorescence intensity [3]: 9.29 MFI

B2: negative control antibody, anti-keyhole limpet hemocyanin (KLH) antibody (antibody, human IgG1, kappa, V domains shown)
VH: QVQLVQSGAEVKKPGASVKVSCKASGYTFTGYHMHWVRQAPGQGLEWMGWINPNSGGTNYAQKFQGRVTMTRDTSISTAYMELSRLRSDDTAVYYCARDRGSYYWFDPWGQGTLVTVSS
VL: DIQMTQSPSSLSASVGDRVTITCRASQGIRNDLGWYQQKPGKAPKRLIYAASSLQSGVPSRFSGSGSGTEFTLTISSLQPEDFATYYCLQHNSYPLTFGGGTKVEIKR
notes: also called Neg; Control; anti-KLH antibody
Mean Fluorescence intensity [1]: 6.2 MFI
Mean Fluorescence intensity [2]: 9.26 MFI
Mean Fluorescence intensity [3]: 6.01 MFI

From patent publication US20210030857A1 (NGM BIOPHARMACEUTICALS, published 2021)
